Values of other authors, collected in article PMC7587574.
Like-named read-outs stand apart in the source and are kept apart here. One block for each substance: values may come before it.

Experiments:
[1] = biological target: PACAP receptor (PAC1R) (Homo sapiens) (UniProt P41586)
[2] = biological target: κ-opioid receptor (Homo sapiens) (UniProt P41145)
[3] = biological target: PACAP receptor (PAC1R) (Homo sapiens) (UniProt P41586); remark: listed apart in the source

Sequence of PACAP receptor (PAC1R) (Homo sapiens) (P41586 21-468): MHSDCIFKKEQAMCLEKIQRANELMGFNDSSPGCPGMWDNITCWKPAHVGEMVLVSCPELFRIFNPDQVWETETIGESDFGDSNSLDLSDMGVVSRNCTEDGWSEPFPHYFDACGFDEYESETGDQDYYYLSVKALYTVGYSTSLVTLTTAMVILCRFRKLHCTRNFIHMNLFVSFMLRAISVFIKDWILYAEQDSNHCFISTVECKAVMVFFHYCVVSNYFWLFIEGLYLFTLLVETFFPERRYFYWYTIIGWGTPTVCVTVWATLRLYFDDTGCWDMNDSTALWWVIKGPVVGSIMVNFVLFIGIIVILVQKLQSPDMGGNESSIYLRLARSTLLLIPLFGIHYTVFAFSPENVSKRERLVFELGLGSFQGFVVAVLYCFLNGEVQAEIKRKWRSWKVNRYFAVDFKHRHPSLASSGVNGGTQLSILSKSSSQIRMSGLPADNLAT
Sequence of PACAP (P18509 82-129): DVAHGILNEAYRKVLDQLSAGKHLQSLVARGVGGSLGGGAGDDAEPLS
Sequence of PACAP (truncated) (P18509 137-169): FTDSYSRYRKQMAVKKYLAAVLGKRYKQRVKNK
Sequence of κ-opioid receptor (Homo sapiens) (P41145 whole entry): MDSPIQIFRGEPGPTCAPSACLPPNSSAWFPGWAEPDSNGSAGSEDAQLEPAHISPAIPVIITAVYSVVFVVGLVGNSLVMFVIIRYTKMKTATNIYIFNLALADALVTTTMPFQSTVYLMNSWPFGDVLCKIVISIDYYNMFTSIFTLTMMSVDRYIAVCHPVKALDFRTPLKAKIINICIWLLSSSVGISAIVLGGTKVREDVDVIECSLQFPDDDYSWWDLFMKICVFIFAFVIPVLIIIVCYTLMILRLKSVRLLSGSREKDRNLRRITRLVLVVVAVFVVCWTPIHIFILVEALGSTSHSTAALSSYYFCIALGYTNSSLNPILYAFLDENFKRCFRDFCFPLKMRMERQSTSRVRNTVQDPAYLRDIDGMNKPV

Kd [1]: 3 nM
Substance: PACAP (from UniProt P18509)

Substance: dynorphin 13-mer fragment (from UniProt P01213)
Kd [2]: 200 nM

Kd [3]: 18000 nM
Substance: PACAP (truncated) (from UniProt P18509)
